Assay results reported in US20230310603A1 (BEIJING NEUROSURGICAL INSTITUTE, published 2023).

T1: CD133 on CD44- and CD133-positive glioma stem cells GSC20 (UniProt O43490 20-865, limits assumed)
T1 sequence (looked up): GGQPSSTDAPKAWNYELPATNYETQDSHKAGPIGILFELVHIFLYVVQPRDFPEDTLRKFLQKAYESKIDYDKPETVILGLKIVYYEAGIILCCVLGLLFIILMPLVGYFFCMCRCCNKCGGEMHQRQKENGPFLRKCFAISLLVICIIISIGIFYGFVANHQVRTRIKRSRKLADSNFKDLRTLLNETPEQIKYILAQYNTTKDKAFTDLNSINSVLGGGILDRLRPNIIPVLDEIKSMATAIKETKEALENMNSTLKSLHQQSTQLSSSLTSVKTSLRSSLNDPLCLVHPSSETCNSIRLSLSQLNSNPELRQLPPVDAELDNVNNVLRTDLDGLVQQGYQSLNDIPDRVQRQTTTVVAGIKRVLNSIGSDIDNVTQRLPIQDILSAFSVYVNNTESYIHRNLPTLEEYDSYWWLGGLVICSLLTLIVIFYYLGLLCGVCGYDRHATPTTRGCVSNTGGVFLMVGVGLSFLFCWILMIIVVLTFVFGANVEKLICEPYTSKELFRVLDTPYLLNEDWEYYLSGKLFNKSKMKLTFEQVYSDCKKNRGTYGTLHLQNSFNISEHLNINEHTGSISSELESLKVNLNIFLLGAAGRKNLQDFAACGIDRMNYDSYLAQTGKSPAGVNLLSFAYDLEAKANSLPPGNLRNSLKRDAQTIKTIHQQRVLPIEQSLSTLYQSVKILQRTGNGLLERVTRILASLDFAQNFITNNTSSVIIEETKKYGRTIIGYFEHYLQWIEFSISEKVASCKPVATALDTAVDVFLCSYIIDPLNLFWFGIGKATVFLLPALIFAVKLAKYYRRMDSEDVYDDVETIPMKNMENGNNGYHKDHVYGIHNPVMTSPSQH


Target: T1, CD133 on CD44- and CD133-positive …
Test: cell-based or functional assay

| Binder | Lysis rate of glioma stem cells GSC20 by CAR-T cells (LDH release, 4 h), effect-target ratio 1:1 [%] | Lysis rate of glioma stem cells GSC20 by CAR-T cells (LDH release, 4 h), effect-target ratio 2:1 [%] | Lysis rate of glioma stem cells GSC20 by CAR-T cells (LDH release, 4 h), effect-target ratio 3:1 [%] | Lysis rate of glioma stem cells GSC20 by CAR-T cells (LDH release, 4 h), effect-target ratio 5:1 [%] |
| --- | --- | --- | --- | --- |
| fusion protein shown in SEQ ID NO. 3 (anti-CD133 single-chain antibody, CD28, CD3), expressed on CAR-T 1 cells (other) QVQLVQSGAEVKKPGASVKVSCKASGYTFTDFEMHWVRQAPGQGLEWMGDIDPGTGDTAYNLKFKGRVTMTTDTSTSTAYMELRSLRSDDTAVYYCALGAFVYWGQGTLVTVSSGSTSGGGSGGGSGGGGSSDVVMTQSPLSLPVTPGEPASISCRSSQSLANSYGNTYLSWYLQKPGQSPQLLIYGISNRFSGVPDRFSGSGSGTDFTLKISRVEAEDVGVYYCLQGTHQPYTFGQGTKLEIKTTTPAPRPPTPAPTIASQPLSLRPEACRPAAGGAVHTRGLDFACDIYIWAPLAGTCGVLLLSLVITLYCRSKRSRLLHSDYMNMTPRRPGPTRKHYQPYAPPRDFAAYRSRVKFSRSADAPAYKQGQNQLYNELNLGRREEYDVLDKRRGRDPEMGGKPRRKNPQEGLYNELQKDKMAEAYSEIGMKGERRRGKGHDGLYQGLSTATKDTYDALHMQALPPR | 6.53 | 26 | 33.5 | 41.4 |
| fusion protein shown in SEQ ID NO. 4 (anti-CD133 single-chain antibody, CD28, truncated body of IL7Rα, CD3), expressed on CAR-T 2 cells (other) QVQLVQSGAEVKKPGASVKVSCKASGYTFTDFEMHWVRQAPGQGLEWMGDIDPGTGDTAYNLKFKGRVTMTTDTSTSTAYMELRSLRSDDTAVYYCALGAFVYWGQGTLVTVSSGSTSGGGSGGGSGGGGSSDVVMTQSPLSLPVTPGEPASISCRSSQSLANSYGNTYLSWYLQKPGQSPQLLIYGISNRFSGVPDRFSGSGSGTDFTLKISRVEAEDVGVYYCLQGTHQPYTFGQGTKLEIKTTTPAPRPPTPAPTIASQPLSLRPEACRPAAGGAVHTRGLDFACDIYIWAPLAGTCGVLLLSLVITLYCRSKRSRLLHSDYMNMTPRRPGPTRKHYQPYAPPRDFAAYRSKKRIKPIVWPSLPDHKKTLEHLCKKPRKNLNVSFNPESFLDCQIHRVDDIQARDEVEGFLQDTFPQQLEESEKQRLLGSNQEEAYVTMSSFYQNQRVKFSRSADAPAYKQGQNQLYNELNLGRREEYDVLDKRRGRDPEMGGKPRRKNPQEGLYNELQKDKMAEAYSEIGMKGERRRGKGHDGLYQGLSTATKDTYDALHMQALPPR | 16.3 | 28 | 39.6 | 43.4 |

Second part, the binder after the results:

| Lysis rate of glioma stem cells GSC20 by CAR-T cells (LDH release, 4 h), effect-target ratio 1:1 [%] | Lysis rate of glioma stem cells GSC20 by CAR-T cells (LDH release, 4 h), effect-target ratio 2:1 [%] | Lysis rate of glioma stem cells GSC20 by CAR-T cells (LDH release, 4 h), effect-target ratio 3:1 [%] | Lysis rate of glioma stem cells GSC20 by CAR-T cells (LDH release, 4 h), effect-target ratio 5:1 [%] | Binder |
| --- | --- | --- | --- | --- |
| 16.9 | 20.3 | 35.3 | 49.5 | fusion protein shown in SEQ ID NO. 5 (anti-CD133 single-chain antibody, CD28, CD3, T2A, anti-TIM3 single-chain antibody), expressed in CAR-T 3 cells (other) QVQLVQSGAEVKKPGASVKVSCKASGYTFTDFEMHWVRQAPGQGLEWMGDIDPGTGDTAYNLKFKGRVTMTTDTSTSTAYMELRSLRSDDTAVYYCALGAFVYWGQGTLVTVSSGSTSGGGSGGGSGGGGSSDVVMTQSPLSLPVTPGEPASISCRSSQSLANSYGNTYLSWYLQKPGQSPQLLIYGISNRFSGVPDRFSGSGSGTDFTLKISRVEAEDVGVYYCLQGTHQPYTFGQGTKLEIKTTTPAPRPPTPAPTIASQPLSLRPEACRPAAGGAVHTRGLDFACDIYIWAPLAGTCGVLLLSLVITLYCRSKRSRLLHSDYMNMTPRRPGPTRKHYQPYAPPRDFAAYRSRVKFSRSADAPAYKQGQNQLYNELNLGRREEYDVLDKRRGRDPEMGGKPRRKNPQEGLYNELQKDKMAEAYSEIGMKGERRRGKGHDGLYQGLSTATKDTYDALHMQALPPREGRGSLLTCGDVEENPGPMTNKCLLQIALLLCFSTTALSQVQLQQSGPGLVKPSHTLSLTCTVSGGSISSGGYYWSWTRQHPGMGLEWIGYISYSGSIYYTPSLKSRLTISVDTSKNQFSLKLSSVTAADTAVYYCASLDSWGSNRDYWGQGTLVTVSSGGGGSEIVLTQSPATLSLSPGERATLSCRASQSVSSYLAWYQQKPGQAPRLLIYDASNRATGIPARFSGSGSGTDFTLTISSLEPEDFAVYYCQQRSNWPLTFGGGTKVEIK |
| 31.4 | 36.8 | 69.6 | 87.2 | fusion protein shown in SEQ ID NO. 6 (anti-CD133 single-chain antibody, CD28, truncated body of IL7Rα, CD3, T2A, anti-TIM3 single-chain antibody), expressed in … (other) QVQLVQSGAEVKKPGASVKVSCKASGYTFTDFEMHWVRQAPGQGLEWMGDIDPGTGDTAYNLKFKGRVTMTTDTSTSTAYMELRSLRSDDTAVYYCALGAFVYWGQGTLVTVSSGSTSGGGSGGGSGGGGSSDVVMTQSPLSLPVTPGEPASISCRSSQSLANSYGNTYLSWYLQKPGQSPQLLIYGISNRFSGVPDRFSGSGSGTDFTLKISRVEAEDVGVYYCLQGTHQPYTFGQGTKLEIKTTTPAPRPPTPAPTIASQPLSLRPEACRPAAGGAVHTRGLDFACDIYIWAPLAGTCGVLLLSLVITLYCRSKRSRLLHSDYMNMTPRRPGPTRKHYQPYAPPRDFAAYRSKKRIKPIVWPSLPDHKKTLEHLCKKPRKNLNVSFNPESFLDCQIHRVDDIQARDEVEGFLQDTFPQQLEESEKQRLLGSNQEEAYVTMSSFYQNQRVKFSRSADAPAYKQGQNQLYNELNLGRREEYDVLDKRRGRDPEMGGKPRRKNPQEGLYNELQKDKMAEAYSEIGMKGERRRGKGHDGLYQGLSTATKDTYDALHMQALPPREGRGSLLTCGDVEENPGPMTNKCLLQIALLLCFSTTALSQVQLQQSGPGLVKPSHTLSLTCTVSGGSISSGGYYWSWTRQHPGMGLEWIGYISYSGSIYYTPSLKSRLTISVDTSKNQFSLKLSSVTAADTAVYYCASLDSWGSNRDYWGQGTLVTVSSGGGGSEIVLTQSPATLSLSPGERATLSCRASQSVSSYLAWYQQKPGQAPRLLIYDASNRATGIPARFSGSGSGTDFTLTISSLEPEDFAVYYCQQRSNWPLTFGGGTKVEIK |
